Reference: patent publication US20260049138A1 (Chugai, published 2026)
Numbering of substitutions follows the chain as printed.

T1: human CD154 (human, UniProt P29965 113-261, limits assumed, biotin-labeled)
T1 construct: also called biotin-labeled human CD154; biotinylated human CD154
T1 sequence (looked up): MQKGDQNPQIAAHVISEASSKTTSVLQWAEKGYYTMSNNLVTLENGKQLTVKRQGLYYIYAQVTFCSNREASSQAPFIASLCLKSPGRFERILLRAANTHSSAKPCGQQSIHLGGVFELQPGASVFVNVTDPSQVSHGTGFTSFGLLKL

B1: CE115HA000 Y100aS one-arm antibody (antibody, human IgG1, kappa, L234A L235A, N297A, name in Kabat numbering)
heavy: QVQLVESGGGVVQPGRSLRLSCAASGFTFSNAWMHWVRQAPGKGLEWVAQIKAKSNNYATYYAESVKGRFTISRDDSKNSLYLQMNSLKTEDTAVYYCRYVHYGAYSGVDAWGQGTTVTVSSASTKGPSVFPLAPSSKSTSGGTAALGCLVKDYFPEPVTVSWNSGALTSGVHTFPAVLQSSGLYSLSSVVTVPSSSLGTQTYICNVNHKPSNTKVDKKVEPKSCDKTHTCPPCPAPEAAGGPSVFLFPPKPKDTLMISRTPEVTCVVVDVSHEDPEVKFNWYVDGVEVHNAKTKPREEQYASTYRVVSVLTVLHQDWLNGKEYKCKVSNKALPAPIEKTISKAKGQPREPQVYTLPPSRCELTKNQVSLSCAVKGFYPSDIAVEWESNGQPENNYKTTPPVLDSDGSFFLVSKLTVDKSRWQQGNVFSCSVMHEALHNHYTQKSLSLSPDYKDDDDK
chain: EPKSSDKTHTCPPCPAPELLGGPSVFLFPPKPKDTLMISRTPEVTCVVVDVSHEDPEVKFNWYVDGVEVHNAKTKPREEQYNSTYRVVSVLTVLHQDWLNGKEYKCKVSNKALPAPIEKTISKAKGQPREPQVCTLPPSRDELTKNQVSLWCLVKGFYPSDIAVEWESNGQPENNYKTTPPVLDSDGSFFLYSKLTVDKSRWQQGNVFSCSVMHEALHNRYTQKSLSLSP
light: DIVMTQSPLSLPVTPGEPASISCRSSQSLVHSNRNTYLHWYQQKPGQAPRLLIYKVSNRFSGVPDRFSGSGSGTDFTLKISRVEAEDVGVYYCGQGTQVPYTFGQGTKLEIKRTVAAPSVFIFPPSDEQLKSGTASVVCLLNNFYPREAKVQWKVDNALQSGNSQESVTEQDSKDSTYSLSSTLTLSKADYEKHKVYACEVTHQGLSSPVTKSFNRGEC
B2: CE115HA000 Y100aL one-arm antibody (antibody, human IgG1, kappa, L234A L235A, N297A, name in Kabat numbering)
heavy: B1 heavy with S107L
chain: B1 chain
light: B1 light
B3: CE115HA000 Y100aQ one-arm antibody (antibody, human IgG1, kappa, L234A L235A, N297A, name in Kabat numbering)
heavy: B1 heavy with S107Q
chain: B1 chain
light: B1 light
B4: 154R4B07#1 one-arm antibody (antibody, human IgG1, kappa, L234A L235A, N297A)
heavy: QVQLVESGGGLVQPGRSLRLSCAASGFTFSNAWMHWVRQAPGKGLEWVAQIKDRGNNYAAYYAESVKGRFTISRDDSKNSIYLQMNSLKTEDTAVYYCRYVHYGSYFFASFYFGVDIWGQGTTVTVSSASTKGPSVFPLAPSSKSTSGGTAALGCLVKDYFPEPVTVSWNSGALTSGVHTFPAVLQSSGLYSLSSVVTVPSSSLGTQTYICNVNHKPSNTKVDKKVEPKSCDKTHTCPPCPAPEAAGGPSVFLFPPKPKDTLMISRTPEVTCVVVDVSHEDPEVKFNWYVDGVEVHNAKTKPREEQYASTYRVVSVLTVLHQDWLNGKEYKCKVSNKALPAPIEKTISKAKGQPREPQVYTLPPSRCELTKNQVSLSCAVKGFYPSDIAVEWESNGQPENNYKTTPPVLDSDGSFFLVSKLTVDKSRWQQGNVFSCSVMHEALHNHYTQKSLSLSPDYKDDDDK
chain: B1 chain
light: B1 light
notes: As m48
B5: 154R3A01#4 one-arm antibody (antibody, human IgG1, kappa, L234A L235A, N297A)
heavy: QVQLVESGGGLVQPGRSLRLSCAASGFTFSNAWMHWVRQAPGKGLEWVAQIKDRVNQYANYYAECVKGRFTISRDDSKNSIYLQMNSLKTEDTAVYYCRYVHYGLTGYFSGQGGVDAWGQGTTVTVSSASTKGPSVFPLAPSSKSTSGGTAALGCLVKDYFPEPVTVSWNSGALTSGVHTFPAVLQSSGLYSLSSVVTVPSSSLGTQTYICNVNHKPSNTKVDKKVEPKSCDKTHTCPPCPAPEAAGGPSVFLFPPKPKDTLMISRTPEVTCVVVDVSHEDPEVKFNWYVDGVEVHNAKTKPREEQYASTYRVVSVLTVLHQDWLNGKEYKCKVSNKALPAPIEKTISKAKGQPREPQVYTLPPSRCELTKNQVSLSCAVKGFYPSDIAVEWESNGQPENNYKTTPPVLDSDGSFFLVSKLTVDKSRWQQGNVFSCSVMHEALHNHYTQKSLSLSPDYKDDDDK
chain: B1 chain
light: B1 light
notes: As m48
B6: 154R3B01#1 one-arm antibody (antibody, human IgG1, kappa, L234A L235A, N297A)
heavy: QVQLVESGGGLVQPGRSLRLSCAASGFTFSSAWMHWVRQAPGKGLEWVAQIKDKQNQYNAYYAESVKGRFTISRDDSKNSIYLQMNSLKTEDTAVYYCRYVHYATSDGFLPYFGVDAWGQGTTVTVSSASTKGPSVFPLAPSSKSTSGGTAALGCLVKDYFPEPVTVSWNSGALTSGVHTFPAVLQSSGLYSLSSVVTVPSSSLGTQTYICNVNHKPSNTKVDKKVEPKSCDKTHTCPPCPAPEAAGGPSVFLFPPKPKDTLMISRTPEVTCVVVDVSHEDPEVKFNWYVDGVEVHNAKTKPREEQYASTYRVVSVLTVLHQDWLNGKEYKCKVSNKALPAPIEKTISKAKGQPREPQVYTLPPSRCELTKNQVSLSCAVKGFYPSDIAVEWESNGQPENNYKTTPPVLDSDGSFFLVSKLTVDKSRWQQGNVFSCSVMHEALHNHYTQKSLSLSPDYKDDDDK
chain: B1 chain
light: B1 light
notes: As m48
B7: 154R4B03#4 one-arm antibody (antibody, human IgG1, kappa, L234A L235A, N297A)
heavy: QVQLVESGGGLVQPGRSLRLSCAASGFTFSNAWMHWVRQAPGKGLEWVAQIKDKQSQYANYYAPSVKGRFTISRDDSKSSIYLQMNSLKTEDTAVYYCRYVHYQSTSYSFYQGGVDAWGQGTTVTVSSASTKGPSVFPLAPSSKSTSGGTAALGCLVKDYFPEPVTVSWNSGALTSGVHTFPAVLQSSGLYSLSSVVTVPSSSLGTQTYICNVNHKPSNTKVDKKVEPKSCDKTHTCPPCPAPEAAGGPSVFLFPPKPKDTLMISRTPEVTCVVVDVSHEDPEVKFNWYVDGVEVHNAKTKPREEQYASTYRVVSVLTVLHQDWLNGKEYKCKVSNKALPAPIEKTISKAKGQPREPQVYTLPPSRCELTKNQVSLSCAVKGFYPSDIAVEWESNGQPENNYKTTPPVLDSDGSFFLVSKLTVDKSRWQQGNVFSCSVMHEALHNHYTQKSLSLSPDYKDDDDK
chain: B1 chain
light: B1 light
notes: As m48
B8: 154R3A01#3 one-arm antibody (antibody, human IgG1, kappa, L234A L235A, N297A)
heavy: B5 heavy with T28A, C65S
chain: B1 chain
light: B1 light
notes: As m48
B9: 154R3A01#2 one-arm antibody (antibody, human IgG1, kappa, L234A L235A, N297A)
heavy: B5 heavy with C65S, F70L
chain: B1 chain
light: B1 light
notes: As m48
B10: 154R3F02#2 one-arm antibody (antibody, human IgG1, kappa, L234A L235A, N297A)
heavy: QVQLVESGGGLVQPGRSLRLSCAASGFTFSNAWMHWVRQAPGKGLEWVAQIKDRASGYNNYYAESVKGRFTISRDDSKNSIYLQMNSLKTEDTAVYYCRYVHYAQSVSAFFQYGVDAWGQGTTVTVSSASTKGPSVFPLAPSSKSTSGGTAALGCLVKDYFPEPVTVSWNSGALTSGVHTFPAVLQSSGLYSLSSVVTVPSSSLGTQTYICNVNHKPSNTKVDKKVEPKSCDKTHTCPPCPAPEAAGGPSVFLFPPKPKDTLMISRTPEVTCVVVDVSHEDPEVKFNWYVDGVEVHNAKTKPREEQYASTYRVVSVLTVLHQDWLNGKEYKCKVSNKALPAPIEKTISKAKGQPREPQVYTLPPSRCELTKNQVSLSCAVKGFYPSDIAVEWESNGQPENNYKTTPPVLDSDGSFFLVSKLTVDKSRWQQGNVFSCSVMHEALHNHYTQKSLSLSPDYKDDDDK
chain: B1 chain
light: B1 light
notes: As m48
B11: 154R4B03#1 one-arm antibody (antibody, human IgG1, kappa, L234A L235A, N297A)
heavy: B7 heavy with S79N
chain: B1 chain
light: B1 light
notes: As m48
B12: 154R3A01#1 one-arm antibody (antibody, human IgG1, kappa, L234A L235A, N297A)
heavy: B5 heavy with C65S
chain: B1 chain
light: B1 light
B13: 154R4F08#1 one-arm antibody (antibody, human IgG1, kappa, L234A L235A, N297A)
heavy: B4 heavy with R16H
chain: B1 chain
light: B1 light
notes: As m48

Target: T2, CD3ε homodimer protein (human, UniProt P07766 23-126, limits assumed, sulfo-tag or biotin label in the ECL assays; amine-coupled to the chip in SPR)
T2 construct: also called human CD3ε homodimer protein; CD3 (CD3ε)
T2 sequence (P07766 23-126 limits assumed): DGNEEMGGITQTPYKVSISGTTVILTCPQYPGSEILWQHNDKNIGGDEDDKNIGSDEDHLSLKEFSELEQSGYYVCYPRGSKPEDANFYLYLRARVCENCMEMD
Assay: SPR Biacore T200; CD3ε homodimer on CM4 chip;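 further: Single-residue variant antibodies injected as analyte over CD3ε homodimer immobilized by amine coupling, run at 25 °C in HBS-EP+ buffer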

Row | ratio of amounts bound Z=Y/X (altered form / CE115HA000) | Binder
1 | 0.64 | B1
2 | 0.48 | B2
3 | 0.56 | B3

Target: T1, human CD154
Assay: ECL competition, CD3ε[+]: CD3ε homodimer added as competitor [1]
Experimental: Next, each obtained IgG was evaluated for its binding to CD3 and human CD154 at the same time by the competition method (electrochemiluminescence method (ECL method)).
A TBST solution containing 0.5% BSA (referred to as a blocking solution; the TBST solution was TBS (manufactured by Takara Bio Inc.) supplemented with 0.1% Tween 20) was added at 150 μL/well to streptavidin plate (MSD K.K.), and the plate was incubated at room temperature for 1 hour or longer. After removal of the blocking solution, each well was washed three times with 250 μL of a TBST solution. The antibody-antigen complex solution was added thereto at 50 μL/well, and the plate was incubated at room temperature for 1 hour so that the biotinylated antigen-antibody-detection sulfo-tag antibody complex solution bound via the biotinylated antigen to the streptavidin plate. After removal of the antibody-antigen complex solution, each well was washed three times with a TBST solution, and a solution of 4×READ buffer (MSD K.K.) diluted 2-fold with water was added thereto at 150 μL/well, followed by the detection of the luminescence signal of the sulfo-tag using Sector Imager 2400 (MSD K.K.).

Row | relative ECL reaction (to no antigen coating) | Binder
4 | 1 | B4
5 | 4 | B5
6 | 18 | B6
7 | 20 | B7
8 | 19 | B8
9 | 4 | B9
10 | 16 | B10
11 | 18 | B11
12 | 21 | B12
13 | 1 | B13
